{"source": "patent US20250073334A1", "about": "(University of California, published 2025)", "key": {"[1]": {"target": "SpyCatcher-CBU1910 fusion protein (Coxiella burnetii)", "assay": "SpyTag/SpyCatcher conjugation, SDS-PAGE"}, "[2]": {"target": "SpyCatcher-H5 hemagglutinin construct (avian influenza A)", "assay": "SpyTag/SpyCatcher reaction, SDS-PAGE"}}, "data": [{"binder": "CpG-ST-E2 nanoparticle (ST-E2 with CpG 1826 conjugated in the internal cavity) (other) MAHIVMVDAYKPTKGSGTAGGGSGSLSVPGPAAAEEKAAPAAAKPATTEGEFPETREKMSGIRRAIAKAMVHSKHTAPHVTLMDEADVTKLVAHRKKFKAIAAEKGIKLTFLPYVVKALVSALREYPVLNTSIDDETEEIIQKHYYNIGIAADTDRGLLVPVIKHADRKPIFALAQEINELAEKARDGKLTPGEMKGASCTITNIGSAGGQWFTPVINHPEVAILGIGRIAEKPIVRCGEIVAAPMLALSLSFDHRMIDGATAQKALNHIKRLLSDPELLLMEA", "values": [{"measurement": "binding result", "setting": "[1]", "value": "binds"}, {"measurement": "binding result", "setting": "[2]", "value": "binds"}]}]}
